Earlier results in patent US20100233200A1, “VECTOR ENCODING THERAPEUTIC POLYPEPTIDE AND SAFETY ELEMENTS TO CLEAR […]” (priority 2007, published 2010).

System: human tmpk
Settings: relative to wild-type tmpk; cited from earlier work

Row | Molecule | enzymatic activity (dTMP to dTDP or AZT-MP to AZT-DP)
1 | F105Y mutant: modified human tmpk, SEQ ID NO: 11, SEQ ID NO: 21 (protein, UniProt P23919 2-212, looked up, variant F105Y) Thymidylate kinase: AARRGALIVLEGVDRAGKSTQSRKLVEALCAAGHRAELLRFPERSTEIGKLLSSYLQKKSDVEDHSVHLLFSANRWEQVPLIKEKLSQGVTLVVDRYAFSGVAYTGAKENFSLDWCKQPDVGLPKPDLVLFLQLQLADAAKRGAFGHERYENGAFQERALRCFHQLMKDTTLNWKMVDASKSIEAVHEDIRVLSEDAIRTATEKPLGELWK | superior enzymatic activity
2 | R200A mutant: modified human tmpk, SEQ ID NOS: 15 and 16 (protein) MAARRGALIVLEGVDRAGKSTQSRKLVEALCAAGHRAELLRFPERSTEIGKLLSSYLQKKSDVEDHSVHLLFSANRWEQVPLIKEKLSQGVTLVVDRYAFSGVAFTGAKENFSLDWCKQPDVGLPKPDLVLFLQLQLADAAKRGAFGHERYENGAFQERALRCFHQLMKDTTLNWKMVDASKSIEAVHEDIRVLSEDAIATATEKPLGELWK | superior enzymatic activity
